The record followed here is paper PMC10216065 (Biomolecules, 2023).

What is called stoichiometry N is a count of units in the complex or per binding partner.

Sequences and labels used below:
B1: Mycobacterium tuberculosis SufU (Rv1465), tag state not told (natural protein)
chain: GSHMVTLRLEQIYQDVILDHYKHPQHRGLREPFGAQVYHVNPICGDEVTLRVALSEDGTRVTDVSYDGQGCSISQAATSVLTEQVIGQRVPRALNIVDAFTEMVSSRGTVPGDEDVLGDGVAFAGVAKYPARVKCALLGWMAFKDALAQASEAFEEVTDERNQRTG
B2: Mycobacterium tuberculosis SufS (Rv1464) (enzyme)
chain: GMTASVNSLDLAAIRADFPILKRIMRGGNPLAYLDSGATSQRPLQVLDAEREFLTASNGAVHRGAHQLMEEATDAYEQGRADIALFVGADTDELVFTKNATEALNLVSYVLGDSRFERAVGPGDVIVTTELEHHANLIPWQELARRTGATLRWYGVTDDGRIDLDSLYLDDRVKVVAFTHHSNVTGVLTPVSELVSRAHQSGALTVLDACQSVPHQPVDLHELGVDFAAFSGHKMLGPNGIGVLYGRRELLAQMPPFLTGGSMIETVTMEGATYAPAPQRFEAGTPMTSQVVGLAAAARYLGAIGMAAVEAHERELVAAAIEGLSGIDGVRILGPTSMRDRGSPVAFVVEGVHAHDVGQVLDDGGVAVRVGHHCALPLHRRFGLAATARASFAVYNTADEVDRLVAGVRRSRHFFGRA

Data set [1] deals with B2. Put plainly: crystal structure. Particulars: both partners purified.
The data set “SEC-MALS” concerns the molecule itself. Nature of the data set: SEC-MALS. For orientation: In gel filtration, larger molecules generally elute earlier.

On to B1, for which the binding result in data set [1] was “binds”.

With B2, in “SEC-MALS”, the “stoichiometry N” value was 2.
